Values belong to the molecule of their own block, whether it stands above or below them.
How the values were obtained:
NF-κB = NF-κB ELAM-luciferase reporter assay in co-transfected 293T cells; assay type: cell-based, Human; settings: 293T cells co-transfected with ligand and receptor; 20 hr after transfection
Method: Human 293T cells were co-transfected with the indicated amounts of expression plasmids along with 250 ng of ELAM-luciferase reporter gene plasmid and 25 ng pRL-TK. 20 hr after transfection, reporter gene activity was determined with the dual-luciferase reporter assay system (Promega).

BAFF [1] = molecular target: T1, BAFF (Homo sapiens, UniProt Q9Y275); assay: Competitive ELISA, BAFF; assay type: binding; settings: data not shown
T1 construct: made in house

APRIL [2] = molecular target: T2, APRIL (Mus musculus, UniProt Q9D777); assay: Competitive ELISA, APRIL; assay type: binding, murine; settings: data not shown
T2 construct: made in house
T2 sequence (Q9D777 105-241): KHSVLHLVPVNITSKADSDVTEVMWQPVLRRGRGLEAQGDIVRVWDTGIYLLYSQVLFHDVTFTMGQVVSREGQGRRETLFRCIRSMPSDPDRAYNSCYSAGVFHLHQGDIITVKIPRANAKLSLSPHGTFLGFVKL

BAFF [3] = molecular target: T1, BAFF; assay: Competitive surface plasmon resonance, BAFF binding to immobilized BCMA-Fc; settings: competition with immobilized BCMA-Fc
Source text: (§1) Surface plasmon resonance (SPR) measurements on a BIAcore 3000 instrument (Pharmacia Biosensor) were used to measure binding affinities of receptors to immobilized APRIL and BAFF by competition binding. […] In these experiments, receptors in solution competed for binding of ligand in solution at room temperature with immobilized BCMA-Fc. BCMA-Fc was coupled to flow cell 2 of a CM4 sensor chip, using the amine coupling protocol supplied by the manufacturer, at a high density (4500 resonance units) so that the initial rate of binding was linearly dependent on the concentration of free ligand. In all experiments flow cell 1 was ethanolamine-blocked and used as the reference cell. Washing with 10 mM HCl regenerated flow cells between sample injections. In order to determine the ligand concentration necessary to obtain the optimal for competition experiments, a preliminary binding study was performed for each ligand where two-fold dilutions of the ligand ranging from 400 nM to 6.25 nM were injected over the BCMA-Fc surface. […] The IC50 values were calculated using a four-parameter curve fit (y=((m1−m4)/(1+(m0/m3)̂m2))+m4) of the initial binding rates for the receptor/control (Vi/Vo) as a function of receptor concentration.

APRIL [4] = molecular target: T2, APRIL; assay: Competitive surface plasmon resonance, APRIL binding to immobilized BCMA-Fc; set-up: species or system murine; settings: competition with immobilized BCMA-Fc
Source text: as §1

T1 sequence (Q9Y275 82-285 limits assumed): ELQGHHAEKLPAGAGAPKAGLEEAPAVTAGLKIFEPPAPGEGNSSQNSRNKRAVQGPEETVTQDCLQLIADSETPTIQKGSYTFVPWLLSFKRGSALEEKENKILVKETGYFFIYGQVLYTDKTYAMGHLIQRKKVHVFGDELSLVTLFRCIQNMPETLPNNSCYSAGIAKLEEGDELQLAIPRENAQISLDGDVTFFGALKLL

B1: shortTACI: TACI splice variant: first 20 residues, one tryptophan in place of the 47 residues encoding CRD1, then the rest of the protein (protein)
chain: MSGLGRSRRGGRSRVDQEERWSLSCRKEQGKFYDHLLRDCISCASICGQHPKQCAYFCENKLRSPVNLPPELRRQRSGEVENNSDNSGRYQGLEHRGSEASPALPGLKLSADQVALVYSTLGLCLCAVLCCFLVAVACFLKKRGDPCSCQPRSRPRQSPAKSSQDHAMEAGSPVSTSPEPVETCSFCFPECRAPTQESAVTPGTPDPTCAGRWGCHTRTTVLQPCPHIPDSGLGIVCVPAQEGGPGA
- NF-κB activation by APRIL or BAFF (NF-κB): capable of mediating NF-κB activation

- binding to BAFF, in words (BAFF [1]): no improvement in binding
- binding to APRIL, in words (APRIL [2]): no improvement in binding
- affinity for BAFF, comparison in words (BAFF [3]): did not confer additional affinity
- affinity for APRIL, comparison in words (APRIL [4]): did not confer additional affinity
B2: TACI_d1d2: residues 21-116 of the TACI extracellular domain (both CRDs) with a C-terminal His-tag (protein, UniProt O14836 21-116, looked up, fragment)
chain: FPQGLWTGVAMRSCPEEQYWDPLLGTCMSCKTICNHQSQRTCAAFCRSLSCRKEQGKFYDHLLRDCISCASICGQHPKQCAYFCENKLRSPVNLPP
modifications: extracellular domain C-terminal His-tag
notes: residues 21-116 of the TACI extracellular domain (both CRDs) with a C-terminal His-tag

— patent publication US20080181886A1, “Polypeptides That Bind Baff And/Or April” (Genentech, Inc., priority 2004, published 2008)
